Reference: patent US20140086913A1 (Gilead, published 2014)

T1: mouse ECD-DDR1-Fc (mouse; human, UniProt Q03146 22-414)
T1 construct: also called mouse DDR1-ECD; wild-type mouse DDR1-ECD; not shown: human IgG1 Fc of the vector pFuse-hIgG1-Fc1 (Invivogen)
T1 sequence: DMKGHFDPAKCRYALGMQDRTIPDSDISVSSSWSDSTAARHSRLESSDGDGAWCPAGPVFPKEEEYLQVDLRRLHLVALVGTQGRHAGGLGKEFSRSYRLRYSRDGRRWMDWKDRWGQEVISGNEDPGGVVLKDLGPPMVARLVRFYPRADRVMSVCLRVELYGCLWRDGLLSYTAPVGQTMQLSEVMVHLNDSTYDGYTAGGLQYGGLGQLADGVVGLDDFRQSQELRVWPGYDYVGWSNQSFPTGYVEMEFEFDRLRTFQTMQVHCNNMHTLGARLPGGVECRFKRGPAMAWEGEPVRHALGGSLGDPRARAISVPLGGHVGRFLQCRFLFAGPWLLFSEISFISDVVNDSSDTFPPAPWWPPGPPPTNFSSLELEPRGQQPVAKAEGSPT

T2: human DDR2 stably expressed on HEK293 cells (human, UniProt Q16832 22-855)
T2 construct: whole, on cells; also called hDDR2
T2 sequence (looked up): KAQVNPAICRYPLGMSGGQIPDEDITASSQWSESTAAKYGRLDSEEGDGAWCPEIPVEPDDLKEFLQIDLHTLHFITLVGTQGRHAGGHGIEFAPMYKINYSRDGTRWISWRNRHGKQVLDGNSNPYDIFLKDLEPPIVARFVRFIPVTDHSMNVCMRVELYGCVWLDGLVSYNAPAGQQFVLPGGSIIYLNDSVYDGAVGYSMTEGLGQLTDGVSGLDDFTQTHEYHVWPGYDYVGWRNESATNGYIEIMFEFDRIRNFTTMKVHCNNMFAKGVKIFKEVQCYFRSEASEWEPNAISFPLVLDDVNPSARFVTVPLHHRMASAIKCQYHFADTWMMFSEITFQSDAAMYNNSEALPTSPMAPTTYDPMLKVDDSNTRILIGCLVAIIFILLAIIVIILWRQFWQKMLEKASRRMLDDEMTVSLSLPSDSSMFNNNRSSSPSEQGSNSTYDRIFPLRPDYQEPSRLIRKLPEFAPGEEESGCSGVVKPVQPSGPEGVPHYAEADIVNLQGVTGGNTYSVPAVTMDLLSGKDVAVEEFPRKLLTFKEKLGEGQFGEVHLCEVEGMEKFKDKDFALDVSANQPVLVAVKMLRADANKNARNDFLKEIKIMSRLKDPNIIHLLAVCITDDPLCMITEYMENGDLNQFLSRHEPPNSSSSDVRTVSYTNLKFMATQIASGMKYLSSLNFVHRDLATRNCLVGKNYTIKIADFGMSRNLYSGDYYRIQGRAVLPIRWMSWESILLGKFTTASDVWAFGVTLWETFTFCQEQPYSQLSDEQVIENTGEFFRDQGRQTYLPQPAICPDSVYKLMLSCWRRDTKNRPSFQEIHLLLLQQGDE

B1: AB2034 (antibody, V domains shown)
VH: QVQLKESGPGLVAPSQSLSITCTVSGFSLTSYHIHWVRQPPGKGLEWLVVIWSDGSTTYNSALKSRLSISKDNSKSQVFLKMNSLQTDDTAIYYCARTGNFYAMDYWGQGTSVTVSS
VL: SIVMTQTPKFLLVSAGDRVTITCKASQSVSNDVVWYQQKPGQSPKLLIYYASSRYTGVPDRFTGSGYGTDFTFTISTVQAEDLAVYFCQQDYSSPYTFGGGTKLEIR
notes: mouse hybridoma mAb
B2: AB2003 (antibody, V domains shown)
VH: DVHLQESGPDLVKPSQSLSLTCTVTDYSITSGYGWHWIRQFPGNKLEWMGYIHYGGSTKYNSSLKSRISITRDTSKNQFFLQLKSVTTDDTGTYYCATSGNYGFAYWGQGTLVTVSA
VL: DIVLTQSPTSLAVSLGQRATMSCRASESVDDYGTSFMHWYQQKPGQPPKLLIYRASNLESGIPARFSGSGSRADFTLSINPVEPDDVATYYCQQSNEDPFTFGSGTKLEIKR
notes: mouse hybridoma mAb
B3: AB2019 (antibody, V domains shown)
VH: QVQLKQSGPGLVQPSQSLSITCTVSGFSFTGYGIHWVRQSPGKGLEWLGVIWSGGITDYNAAFISRLSISMDSSKGQVFFKMNSLQANDTAIYYCARRSTTVVADYAMDYWGQGTSVTVSS
VL: SIVMTQTPKFLLVSAGDRVTITCKASQSVSNDVAWYQQKPGQSPKLLIYYASNRYTGVPDRFTGSGYGTDFTFTINTVQAEDLAVYFCQQDYTSPLTFGAGTKLELKR
notes: mouse hybridoma mAb
B4: AB2032 (antibody, V domains shown)
VH: B3 VH
VL: B3 VL
notes: mouse hybridoma mAb
B5: AB2040 (antibody, V domains shown)
VH: EVMLVESGGGLVKPGGSLKLSCAASGFTFSNYAMSWVRQTPEKRLEWVAKTSSGDTYTYYPDSVKGRFTISRDNAKNTLYLQMTSLRSEDTAIYYCARQDYYGITPWFFDVWGAGTTVTVSS
VL: ENVLTQSPAIMSASPGEKVTMTCRASSSVSSIYLHWYQQKSGASPKLWIYSTSNLASGVPARFSGSGSGTSYSLTITSVEAEDAATYYCQQYSGYPLITFGAGTKLELKR
notes: mouse hybridoma mAb
B6: AB2054 (antibody, V domains shown)
VH: B5 VH
VL: B5 VL
notes: mouse hybridoma mAb
B7: AB2065 (antibody, V domains shown)
VH: B5 VH
VL: B5 VL
notes: mouse hybridoma mAb
B8: AB2073 (antibody, V domains shown)
VH: B5 VH
VL: B5 VL
notes: mouse hybridoma mAb

Target: DDR1 endogenously expressed on human cancer cell lines (T47D, HCT-116, A431) (human) (UniProt Q08345)
Assay: cell-based or functional assay

| Binder | EC50, DDR1 phospho-specific ELISA (T47D) | EC50, cluster formation assay (A431 cells) | Maximal inhibition, DDR1 phospho-specific ELISA (T47D) | NPI of cluster formation at 66 nM (A431 cells) |
| --- | --- | --- | --- | --- |
| B1 | 0.63 nM | 7.87 nM | 100% | 119% |

Target: DDR1 endogenously expressed on human cancer cell lines (T47D, HCT-116, A431) (human) (UniProt Q08345)
Assay: cell-based or functional assay
Remark: another data set of the same source

| Binder | EC50, DDR1 phospho-specific ELISA (T47D) | EC50, cluster formation assay (A431 cells) | Maximal inhibition, DDR1 phospho-specific ELISA (T47D) | NPI of cluster formation at 66 nM (A431 cells) |
| --- | --- | --- | --- | --- |
| B2 | 0.42 nM | 2.38 nM | 100% | 128% |
| B3 | 0.66 nM |  | 100% | 113% |
| B4 | 0.64 nM | 6.89 nM | 100% | 103% |
| B5 | 0.34 nM |  |  | 3.6% |
| B6 | 0.36 nM |  |  | 3.6% |
| B7 | 0.35 nM |  | 100% | 15.8% |
| B8 | 0.45 nM |  |  | -0.2% |

Target: DDR1 endogenously expressed on human cancer cell lines (T47D, HCT-116, A431) (human) (UniProt Q08345)
Assay: flow cytometry, T47D cells

| Binder | MFI |
| --- | --- |
| B1 | 4370 MFI |
| B2 | 6100 MFI |
| B3 | 4950 MFI |
| B4 | 6820 MFI |
| B5 | 2810 MFI |
| B6 | 5930 MFI |
| B7 | 4400 MFI |
| B8 | 6050 MFI |

Target: DDR1 endogenously expressed on human cancer cell lines (T47D, HCT-116, A431) (human) (UniProt Q08345)
Assay: flow cytometry, HCT116 cells

| Binder | MFI |
| --- | --- |
| B1 | 1060 MFI |
| B2 | 1410 MFI |
| B3 | 1490 MFI |
| B4 | 1900 MFI |
| B5 | 2210 MFI |
| B6 | 1530 MFI |
| B7 | 2480 MFI |
| B8 | 1690 MFI |

Target: human DDR1 (isoform B) stably expressed on HEK293 cells (human) (UniProt Q08345)
Assay: flow cytometry, HEK293/hDDR1

human DDR1 (isoform B) stably expressed on HEK293 cells (human), sequence (Q08345 19-913): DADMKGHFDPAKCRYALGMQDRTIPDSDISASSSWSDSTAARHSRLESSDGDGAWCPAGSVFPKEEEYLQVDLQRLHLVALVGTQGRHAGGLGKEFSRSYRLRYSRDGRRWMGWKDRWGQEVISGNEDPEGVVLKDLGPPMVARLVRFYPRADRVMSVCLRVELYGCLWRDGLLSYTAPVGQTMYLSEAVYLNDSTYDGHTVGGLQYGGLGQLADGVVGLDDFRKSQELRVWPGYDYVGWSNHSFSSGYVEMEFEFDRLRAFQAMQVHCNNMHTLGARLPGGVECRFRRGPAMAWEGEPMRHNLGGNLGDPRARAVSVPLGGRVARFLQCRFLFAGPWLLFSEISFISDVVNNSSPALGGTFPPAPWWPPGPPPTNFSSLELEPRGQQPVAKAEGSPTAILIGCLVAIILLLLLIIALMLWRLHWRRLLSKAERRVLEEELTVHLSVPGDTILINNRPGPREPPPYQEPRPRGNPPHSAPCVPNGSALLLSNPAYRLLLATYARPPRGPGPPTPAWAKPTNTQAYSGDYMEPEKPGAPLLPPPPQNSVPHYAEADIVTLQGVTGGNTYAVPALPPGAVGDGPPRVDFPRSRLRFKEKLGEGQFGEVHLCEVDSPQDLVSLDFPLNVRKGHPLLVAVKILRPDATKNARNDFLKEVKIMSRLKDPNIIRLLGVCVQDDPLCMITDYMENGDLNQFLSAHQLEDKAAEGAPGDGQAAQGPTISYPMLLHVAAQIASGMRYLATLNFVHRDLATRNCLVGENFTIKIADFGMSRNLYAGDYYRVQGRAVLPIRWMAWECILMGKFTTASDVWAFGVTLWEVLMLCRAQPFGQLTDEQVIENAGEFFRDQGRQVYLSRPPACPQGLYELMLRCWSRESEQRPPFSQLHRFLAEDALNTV

| Binder | MFI |
| --- | --- |
| B1 | 11400 MFI |
| B2 | 15000 MFI |
| B3 | 12600 MFI |
| B4 | 13700 MFI |
| B5 | 13700 MFI |
| B6 | 15500 MFI |
| B7 | 3560 MFI |
| B8 | 16200 MFI |

Target: T1, mouse ECD-DDR1-Fc
Assay: ELISA, coated antigen
Protocol: (§1) In this study, ELISA was used to determine the affinity of murine anti-DDR1 monoclonal antibodies to the extracellular domain (ECD) of either human or murine DDR1. A 96-well MaxiSorb ELISA plates (Nunc) were coated with 2 μg/mL of one of three purified recombinant tagged proteins: human ECD-DDR1-His protein, human ECD-DDR1-Fc, or mouse ECD-DDR1-Fc overnight at 4° C. The next day, the plates were blocked with 5% bovine serum albumin (BSA, Jackson Immunoresearch) prior to the addition of serially diluted anti-DDR1 monoclonal antibodies. Antibodies were incubated for 1 hr at room temperature. The binding of antibody to the antigen was detected by incubating samples with anti-mouse IgG-HRP (horse radish peroxidase) secondary detection antibody (Jackson Immunoresearch) for 1 hr. After a washing step, 3,3′,5,5″-tetramethylbenzidine (TMB) reagent was added for HRP to produce a colorimetric signal. The reaction was stopped by addition of 1M hydrochloric acid after 2 minutes and measured for absorbance (optical density, OD) at 450λ on a Molecular Devices plate reader. The OD values were plotted against antibody concentration and fitted using a using 4-parameter logistic equation in SoftMax software (Molecular Devices). The apparent affinity constant (KD) was taken from the C-parameter of the equation (y=(A−D)/(1+(x/C)̂B)+D). The apparent affinity constants were summarized (in some cases shown as average values) in Table 10 below. Lower value indicates higher binding affinity of the antibody to the antigen.

| Binder | binding result |
| --- | --- |
| B1 | no binding |
| B2 | no binding |
| B5 | no binding |
| B6 | no binding |
| B7 | no binding |
| B8 | no binding |

Target: DDR1 with a ProLink Tag (PK) in engineered U20S cells (DiscoveRx), Q08345
Assay: cell-based or functional assay

| Binder | Mean EC50, DDR1 Tyr513 phosphorylation assay (U20S) |
| --- | --- |
| B1 | 5.2 nM |
| B2 | 3 nM |
| B3 | 6.6 nM |
| B4 | 7.72 nM |
| B7 | 25.7 nM |

Target: T2, human DDR2 stably expressed on HEK293 …
Assay: flow cytometry, HEK293/hDDR2
Protocol: Additional monoclonal antibodies were obtained from individual hybridomas in Example 1 and were characterized for their properties.
Cells were cultured in DMEM with 10% FBS and 0.8 mg/mL hygromycin. When cells reached 60-80% confluence, they were centrifuged at 1,200 rpm for 5 minutes, suspended in FACS buffer (1×PBS, 1% BSA), and aliquoted into a 96-well plate at 1×10⁶ cells per well. The anti-DDR1 monoclonal antibodies or appropriate isotype controls at 2 μg per 1×10⁶ cells were added and incubated at 4° C. for 1 hr. The cells were washed twice with FACS buffer then stained with the anti-IgG-PE secondary antibody at 10 μL per well at 4° C. for 1 hr. The cells were washed again and measured for the MFI values or signals using flow cytometry (LSR Fortessa instrument, BD Biosciences). Background MFI signals from vector-only cells (i.e. no DDR1 or DDR2 expression) was subtracted from those of the cells treated with antibodies. Higher MFI values or signals indicated increased binding or specificity of the anti-DDR1 antibodies to the DDR1 on the cell surface.

| Binder | MFI |
| --- | --- |
| B1 | 175 MFI |
| B2 | 176 MFI |
| B3 | 244 MFI |
| B4 | 265 MFI |
| B5 | 308 MFI |
| B6 | 306 MFI |
| B7 | 353 MFI |
| B8 | 410 MFI |

Target: T3, DDR1ECD-Fc (R&D Systems, Catalog #2396-DR) (human, UniProt Q08345 21-416)
T3 construct: range 21-416; construct as described for the bought immunogen; also called human ECD-DDR1-Fc; Fc-ECD-DR1; not shown: human IgG1, Pro100-Lys330
Assay: ELISA, coated antigen, apparent KD
Protocol: as §1

| Binder | Kd |
| --- | --- |
| B1 | 0.256 nM |
| B2 | 0.216 nM |
| B3 | 0.324 nM |
| B4 | 0.596 nM |
| B5 | 0.254 nM |
| B6 | 0.31 nM |
| B7 | 0.234 nM |
| B8 | 0.209 nM |

Target: T4, human ECD-DDR1-His protein (human, UniProt Q08345 21-416)
T4 construct: also called huDDR1-ECD-His; DDR1ECD-6Xhis; not shown: His tag
Assay: ELISA, coated antigen, apparent KD
Protocol: as §1

| Binder | Kd |
| --- | --- |
| B1 | 0.311 nM |
| B2 | 0.153 nM |
| B3 | 0.372 nM |
| B4 | 0.5 nM |
| B5 | 0.115 nM |
| B6 | 0.154 nM |
| B7 | 0.197 nM |
| B8 | 0.2 nM |
